{"source": "patent US20230399608A1", "about": "“PROCESS FOR ESTABLISHING A HUMAN TESTICULAR TISSUE CULTURE SYSTEM” (PATERNA BIOSCIENCES INC., priority 2021, published 2023)", "molecules": {"B1": {"name": "WNT-1: ligand of RYK/FZD3/FZD7/FZD1/ROR2/LRP6 (protein, UniProt P04628 28-370, looked up)", "Proto-oncogene Wnt-1": "ANSSGRWWGIVNVASSTNLLTDSKSLQLVLEPSLQLLSRKQRRLIRQNPGILHSVSGGLQSAVRECKWQFRNRRWNCPTAPGPHLFGKIVNRGCRETAFIFAITSAGVTHSVARSCSEGSIESCTCDYRRRGPGGPDWHWGGCSDNIDFGRLFGREFVDSGEKGRDLRFLMNLHNNEAGRTTVFSEMRQECKCHGMSGSCTVRTCWMRLPTLRAVGDVLRDRFDGASRVLYGNRGSNRASRAELLRLEPEDPAHKPPSPHDLVYFEKSPNFCTYSGRLGTAGTAGRACNSSSPALDGCELLCCGRGHRTRTQRVTERCNCTFHWCCHVSCRNCTHTRVLHECL"}, "B2": {"name": "WNT-3A: ligand of RYK/FZD3/FZD7/FZD1/LRP6 (protein, UniProt P56704 19-352, looked up)", "Protein Wnt-3a": "SYPIWWSLAVGPQYSSLGSQPILCASIPGLVPKQLRFCRNYVEIMPSVAEGIKIGIQECQHQFRGRRWNCTTVHDSLAIFGPVLDKATRESAFVHAIASAGVAFAVTRSCAEGTAAICGCSSRHQGSPGKGWKWGGCSEDIEFGGMVSREFADARENRPDARSAMNRHNNEAGRQAIASHMHLKCKCHGLSGSCEVKTCWWSQPDFRAIGDFLKDKYDSASEMVVEKHRESRGWVETLRPRYTYFKVPTERDLVYYEASPNFCEPNPETGSFGTRDRTCNVSSHGIDGCDLLCCGRGHNARAERRREKCRCVFHWCCYVSCQECTRVYDVHTCK"}, "B3": {"name": "Neurturin (NRTN): ligand of GFRA1/GFRA2/RET/GFRA3 (protein, UniProt Q99748 96-197, looked up)", "Neurturin": "ARLGARPCGLRELEVRVSELGLGYASDETVLFRYCAGACEAAARVYDLGLRRLRQRRRLRRERVRAQPCCRPTAYEDEVSFLDAHSRYHTVHELSARECACV"}, "B4": {"name": "Artemin (ARTN): ligand of GFRA1/GFRA2/RET/GFRA3 (protein, UniProt Q5T4W7 108-220, looked up)", "Artemin": "AGGPGSRARAAGARGCRLRSQLVPVRALGLGHRSDELVRFRFCSGSCRRARSPHDLSLASLLGAGALRPPPGSRPVSQPCCRPTRYEAVSFMDVNSTWRTVDRLSATACGCLG"}, "B5": {"name": "BMP8b: ligand of BMPR1B/BMPR1A/BMPR2 (protein, UniProt P34820 264-402, looked up)", "Bone morphogenetic protein 8B": "AVRPLRRRQPKKSNELPQANRLPGIFDDVHGSHGRQVCRRHELYVSFQDLGWLDWVIAPQGYSAYYCEGECSFPLDSCMNATNHAILQSLVHLMMPDAVPKACCAPTKLSATSVLYYDSSNNVILRKHRNMVVKACGCH"}, "B6": {"name": "GDF6/BMP13: ligand of BMPR1B/BMPR1A/BMPR2 (protein, UniProt Q6KF10 336-455, looked up)", "Growth/differentiation factor …": "TAFASRHGKRHGKKSRLRCSKKPLHVNFKELGWDDWIIAPLEYEAYHCEGVCDFPLRSHLEPTNHAIIQTLMNSMDPGSTPPSCCVPTKLTPISILYIDAGNNVVYKQYEDMVVESCGCR"}, "B7": {"name": "GDF9: ligand of ACVR2A/BMPR1B/BMPR1A/BMPR2/TGFBR1 (protein, UniProt O60383 320-454, looked up)", "Growth/differentiation factor …": "GQETVSSELKKPLGPASFNLSEYFRQFLLPQNECELHDFRLSFSQLKWDNWIVAPHRYNPRYCKGDCPRAVGHRYGSPVHTMVQNIIYEKLDSSVPRPSCVPAKYSPLSVLTIEPDGSIAYKEYEDMIATKCTCR"}, "B8": {"name": "GDF11/BMP11: ligand of BMPR1B/BMPR1A/BMPR2/ACVR2B/ACVR1B/ACVR2A (protein, UniProt O95390 299-407, looked up)", "Growth/differentiation factor …": "NLGLDCDEHSSESRCCRYPLTVDFEAFGWDWIIAPKRYKANYCSGQCEYMFMQKYPHTHLVQQANPRGSAGPCCTPTKMSPINMLYFNDKQQIIYGKIPGMVVDRCGCS"}, "B9": {"name": "CNTN2: ligand of CNTNAP2 (protein, UniProt Q02246 31-1012, looked up)", "Contactin-2": "SQTTFGPVFEDQPLSVLFPEESTEEQVLLACRARASPPATYRWKMNGTEMKLEPGSRHQLVGGNLVIMNPTKAQDAGVYQCLASNPVGTVVSREAILRFGFLQEFSKEERDPVKAHEGWGVMLPCNPPAHYPGLSYRWLLNEFPNFIPTDGRHFVSQTTGNLYIARTNASDLGNYSCLATSHMDFSTKSVFSKFAQLNLAAEDTRLFAPSIKARFPAETYALVGQQVTLECFAFGNPVPRIKWRKVDGSLSPQWTTAEPTLQIPSVSFEDEGTYECEAENSKGRDTVQGRIIVQAQPEWLKVISDTEADIGSNLRWGCAAAGKPRPTVRWLRNGEPLASQNRVEVLAGDLRFSKLSLEDSGMYQCVAENKHGTIYASAELAVQALAPDFRLNPVRRLIPAARGGEILIPCQPRAAPKAVVLWSKGTEILVNSSRVTVTPDGTLIIRNISRSDEGKYTCFAENFMGKANSTGILSVRDATKITLAPSSADINLGDNLTLQCHASHDPTMDLTFTWTLDDFPIDFDKPGGHYRRTNVKETIGDLTILNAQLRHGGKYTCMAQTVVDSASKEATVLVRGPPGPPGGVVVRDIGDTTIQLSWSRGFDNHSPIAKYTLQARTPPAGKWKQVRTNPANIEGNAETAQVLGLTPWMDYEFRVIASNILGTGEPSGPSSKIRTREAAPSVAPSGLSGGGGAPGELIVNWTPMSREYQNGDGFGYLLSFRRQGSTHWQTARVPGADAQYFVYSNESVRPYTPFEVKIRSYNRRGDGPESLTALVYSAEEEPRVAPTKVWAKGVSSSEMNVTWEPVQQDMNGILLGYEIRYWKAGDKEAAADRVRTAGLDTSARVSGLHPNTKYHVTVRAYNRAGTGPASPSANATTMKPPPRRPPGNISWTFSSSSLSIKWDPVVPFRNESAVTGYKMLYQNDLHLTPTLHLTGKNWIEIPVPEDIGHALVQIRTTGPGGDGIPAEVHIVRNGGTSMMVEN"}, "B10": {"name": "DLK2: ligand of NOTCH1 (protein, UniProt Q6UY11 27-383, looked up)", "Protein delta homolog 2": "DDCSSHCDLAHGCCAPDGSCRCDPGWEGLHCERCVRMPGCQHGTCHQPWQCICHSGWAGKFCDKDEHICTTQSPCQNGGQCMYDGGGEYHCVCLPGFHGRDCERKAGPCEQAGSPCRNGGQCQDDQGFALNFTCRCLVGFVGARCEVNVDDCLMRPCANGATCLDGINRFSCLCPEGFAGRFCTINLDDCASRPCQRGARCRDRVHDFDCLCPSGYGGKTCELVLPVPDPPTTVDTPLGPTSAVVVPATGPAPHSAGAGLLRISVKEVVRRQEAGLGEPSLVALVVFGALTAALVLATVLLTLRAWRRGVCPPGPCCYPAPHYAPACQDQECQVSMLPAGLPLPRDLPPEPGKTTAL"}, "B11": {"name": "rh Midkine Protein: ligand of GPC2 (protein, UniProt P21741 21-143, looked up)", "Midkine": "VAKKKDKVKKGGPGSECAEWAWGPCTPSSKDCGVGFREGTCGAQTQRIRCRVPCNWKKEFGADCKYKFENWGACDGGTGTKVRQGTLKKARYNAQCQETIRVTKPCTPKTKAKAKAKKGKGKD"}, "B12": {"name": "rh HB-EGF: ligand of CD9 (protein, UniProt Q99075 63-148, looked up)", "Heparin-binding EGF-like …": "DLQEADLDLLRVTLSSKPQALATPNKEEHGKRKKKGKGLGKKRDPCLRKYKDFCIHGECKYVKELRAPSCICHPGYHGERCHGLSL"}, "B13": {"name": "rh MIF: ligand of CXCR4/CD74 (protein, UniProt P14174 2-115, looked up)", "Macrophage migration …": "PMFIVNTNVPRASVPDGFLSELTQQLAQATGKPPQYIAVHVVPDQLMAFGGSSEPCALCSLHSIGKIGGAQNRSYSKLLCGLLAERLRISPDRVYINYYDMNAANVGWNNSTFA"}, "B14": {"name": "GDNF: recombinant human glial cell line-derived neurotrophic factor (protein, UniProt P39905 78-211, looked up)", "Glial cell line-derived …": "SPDKQMAVLPRRERNRQAAAANPENSRGKGRRGQRGKNRGCVLTAIHLNVTDLGLGYETKEELIFRYCSGSCDAAETTYDKILKNLSRNRRLVSDKVGQACCRPIAFDDDLSFLDDNLVYHILRKHSAKRCGCI"}, "B15": {"name": "rh ADAM10: ligand of CADM1/TSPAN14/TSPAN15/TSPAN12 (protein, UniProt O14672 214-748, looked up)", "Disintegrin and …": "TTSAEKNTCQLYIQTDHLFFKYYGTREAVIAQISSHVKAIDTIYQTTDFSGIRNISFMVKRIRINTTADEKDPTNPFRFPNIGVEKFLELNSEQNHDDYCLAYVFTDRDFDDGVLGLAWVGAPSGSSGGICEKSKLYSDGKKKSLNTGIITVQNYGSHVPPKVSHITFAHEVGHNFGSPHDSGTECTPGESKNLGQKENGNYIMYARATSGDKLNNNKFSLCSIRNISQVLEKKRNNCFVESGQPICGNGMVEQGEECDCGYSDQCKDECCFDANQPEGRKCKLKPGKQCSPSQGPCCTAQCAFKSKSEKCRDDSDCAREGICNGFTALCPASDPKPNFTDCNRHTQVCINGQCAGSICEKYGLEECTCASSDGKDDKELCHVCCMKKMDPSTCASTGSVQWSRHFSGRTITLQPGSPCNDFRGYCDVFMRCRLVDADGPLARLKKAIFSPELYENIAEWIVAHWWAVLLMGIALIMLMAGFIKICSVHTPSSNPKLPPPKPLPGTLKRRRPPQPIQQPQRQRPRESYQMGHMRR"}}, "data": [{"tested_on": "testicular germ cell proliferation", "test": "Screen of SSC / differentiating spermatogonia receptor ligands in the iterative culture process", "type": "cell-based, human", "details": "ligand at the concentration listed in Table 5; effective to date at improving germ cell proliferation", "excerpt": "A process for identification and selection of receptor ligands capable of improving testicular germ cell proliferation was developed. The process uses expression data obtained by mining scRNA-seq data obtained from testicular tissue (FIG. 27). The process systematically prioritizes candidates for spermatogonia ligands through a series of bioinformatics analyses and filtering. The process comprises identifying and selecting potential ligands based on their receptor expression in State 1 SSCs (active stem cells) and State 2/3 differentiating spermatogonia (differentiated germ cells with strong proliferation ability), or any combination thereof.\nMore specifically, the approach was based on the single-cell RNA sequencing transcriptome profile of the adult human testis atlas (Guo, J., Grow, E. J., Mlcochova, H., Maher, G. J., Lindskog, C., Nie, X., Guo, Y., Takei, Y., Yun, J., Cai, L., et al. (2018). The adult human testis transcriptional cell atlas. Cell Research 28, 1141. 10.1038/s41422-018-0099-2; the disclosure of all of which is incorporated herein in its entirety), which provides a comprehensive characterization of cell types in the human adult testis. Pseudo-bulk RNA-seq analysis was used, which involves aggregating individual cells into groups to enhance the receptor gene expression signal on SSCs and differentiating spermatogonia. Each individual cell is assigned to its corresponding cell type cluster based and summing the expression values of all cells within each cluster to create pseudo-bulk samples.\nThe CellTalkDB database was used to identify receptors expressed in SSCs/differentiating spermatogonia. Specifically, the receptors whose expression in SSCs/differentiating spermatogonia ranks within the top 150 were selected, as expression levels below this point are generally low in these cell populations. […] This filtering step helps to focus on receptors that are more specific to the target cell populations. Using the CellTalkDB database, the corresponding ligands for the selected receptors were then identified. The ligand candidates were prioritized based on their expression levels in the testes, and their known functionality.\nThe identified ligands were then used in the iterative process of the instant disclosure for identifying culture conditions that support testicular germ cell proliferation in vitro to refine the culture conditions.", "values": [{"molecule": "C[C@]12CC[C@H]3[C@@H](CCC4=CC(=O)CC[C@@]43C)[C@@H]1CC[C@@H]2O", "note": "[Testosterone, reference compound]", "Effective": "Yes"}, {"molecule": "FGF2: basic fibroblast growth factor", "Effective": "Yes"}, {"molecule": "rh CXCL12: chemokine; ligand of CXCR4", "Effective": "No"}, {"molecule": "rh LIF: leukemia inhibitory factor; ligand of IL6ST/LIFR", "Effective": "Yes"}, {"molecule": "rh Secretin: ligand of VIPR2", "Effective": "No"}, {"molecule": "rh beta-NGF: ligand of KIDINS220", "Effective": "Yes"}, {"molecule": "B1", "Effective": "No"}, {"molecule": "B2", "Effective": "Yes"}, {"molecule": "B3", "Effective": "Yes"}, {"molecule": "B4", "Effective": "No"}, {"molecule": "B5", "Effective": "No"}, {"molecule": "B6", "Effective": "No"}, {"molecule": "B7", "Effective": "No"}, {"molecule": "B8", "Effective": "No"}, {"molecule": "B9", "Effective": "No"}, {"molecule": "B10", "Effective": "No"}, {"molecule": "B11", "Effective": "Yes"}, {"molecule": "B12", "Effective": "Yes"}, {"molecule": "B13", "Effective": "Yes"}, {"molecule": "B14", "Effective": "Yes"}, {"molecule": "B15", "Effective": "No"}]}]}
